This assay has as its target SARS-CoV spike without stabilizing modifications on pseudovirus (SARS-CoV, UniProt P59594 14-1255). Put plainly: cell-based or functional assay.

The values below come from patent publication US20240294611A1 (University of Texas, published 2024).

B1: 3A3 full-length antibody (mouse variable region-human IgG1 constant region chimera) (antibody, V domains shown)
VH: QVQLQQSGAELLKPGASVKLSCTASGFNIKDTYIHWLKQRPEQGLEWIGRIGPAIGNTIYAPKFQGKATITTDTSSNTAYLQLSSLTSEDTAVYYCARYYGSSYYYFDYWGQGTTLTVSS
VL: DIVMTQSAPSVPVTPGESVSISCRSSKSLLHSNGNTYLYWFLQRPGQSPQLLIYRMSNLASGVPDRFSGSGSGTAFTLRISRVEAEDVGVYYCMQYLEYPLTFGAGTKLELKR
For the molecule B1, the “Pseudovirus IC50” value stood at 188 nM.
